Holding throughout (type): biochemical, human
Substrate in data set [1]: Oc1ccc2ccc3c4ccccc4cc4ccc1c2c43
As to the kind of experiment: Kinetics of 3-OH-BaP sulfonation by partially purified cDNA-expressed SULT1A3. The settings on record: other: apparent, 3-OH-BaP as substrate. From the text: (§1) The expression of human SULT1A1*1, SULT1A3, SULT1B1, and SULT1E1 in Escherichia coli has been described previously ([Dajani et al. 1998]; [Wang et al. 1998]). We grew E. coli cells containing the respective sulfotransferase genes as described previously ([Falany et al. 1990], [1994]), and prepared 100,000g supernatant fractions for use in inhibition studies and for partial purification of the SULT enzymes. We purchased expressed SULT1A1*2 cytosolic extract from PanVera (Madison, WI) and used it as supplied.
(§2) The 100,000g supernatant fractions of SULT1A1*1, SULT1A3, SULT1B1, and SULT1E1 were partially purified by chromatographic methods ([Falany et al. 1990], [1994]). After the last step, a 3′-phosphoadenosine 5′-phosphate (PAP)-agarose affinity column, we dialyzed the fractions eluted with PAP with three changes of buffer to remove PAP before the assay of SULT activity with 3-OH-BaP as substrate. We analyzed active fractions by SDS-PAGE ([Laemmli 1970]) to assess the purity of each SULT enzyme. We stained the gels with Coomassie R-250 reagent and determined the percentage of protein present as each respective SULT enzyme by scanning densitometry.
(§3) We determined SULT activity with 3-OH-BaP as substrate by a fluorimetric assay of BaP-3-SO4 product formation, as described previously ([Wang et al. 2004]). […] Duplicate tubes were prepared for each incubation condition. We examined the kinetics of sulfonation in three liver cytosol fractions by systematically varying the concentration of 3-OH-BaP or PAPS. When the variable substrate was 3-OH-BaP, we used 12 concentrations in the range from 0.035 to 2.00 μM, and the concentration of PAPS was kept constant at 10 μM. […]
(§4) We determined the kinetic parameters for 3-OH-BaP sulfonation by partially purified preparations of the cDNA-expressed SULT isozymes under incubation conditions similar to those used for liver cytosol. […]
(§5) We calculated the enzyme kinetic parameters from studies with variable concentrations of 3-OH-BaP using nonlinear regression analysis and GraphPad 4.0 software (GraphPad Software, San Diego, CA). […]

Substrate in data set [2]: Oc1ccc2ccc3c4ccccc4cc4ccc1c2c43
As to the kind of experiment: Kinetics of 3-OH-BaP sulfonation by partially purified cDNA-expressed SULT1E1. The following applies: other: apparent, 3-OH-BaP as substrate.
Text: as §1, §2, §3, §4, §5

Substrate in data set [3]: Oc1ccc2ccc3c4ccccc4cc4ccc1c2c43
As to the kind of experiment: Kinetics of 3-OH-BaP sulfonation by expressed SULT1A1*2. The settings on record: other: expressed SULT1A1*2; two-substrate model.
Text: as §1
We determined SULT activity with 3-OH-BaP as substrate by a fluorimetric assay of BaP-3-SO4 product formation, as described previously ([Wang et al. 2004]). […] Duplicate tubes were prepared for each incubation condition. We examined the kinetics of sulfonation in three liver cytosol fractions by systematically varying the concentration of 3-OH-BaP or PAPS. […]
as §4, §5

Substrate in data set [4]: Oc1ccc2ccc3c4ccccc4cc4ccc1c2c43
As to the kind of experiment: Kinetics of 3-OH-BaP sulfonation by partially purified cDNA-expressed SULT1A1*1. The following applies: other: apparent; partially purified SULT1A1*1; 3-OH-BaP as substrate.
Text: as §1, §2, §3, §4, §5

B1: SULT1A3 (Homo sapiens) (protein)
chain: MELIQDTSRPPLEYVKGVPLIKYFAEALGPLQSFQARPDDLLINTYPKSGTTWVSQILDMIYQGGDLEKCNRAPIYVRVPFLEVNDPGEPSGLETLKDTPPPRLIKSHLPLALLPQTLLDQKVKVVYVARNPKDVAVSYYHFHRMEKAHPEPGTWDSFLEKFMAGEVSYGSWYQHVQEWWELSRTHPVLYLFYEDMKENPKREIQKILEFVGRSLPEETMDFMVQHTSFKEMKKNPMTNYTTVPQELMDHSISPFMRKGMAGDWKTTFTVAQNERFDADYAEKMAGCSLSFRSEL
notes: made in house; host or cells: Escherichia coli
On to B1, for which, in data set [1], the Km – broadly, the substrate concentration at which the rate is half of its maximum – came out at 2.90 µM; the Vmax (commonly the rate approached at saturating substrate) was determined as 0.333 µmol/min/mg; the Vmax/Km amounted to 115000 µL/min/mg.

B2: SULT1E1 (Homo sapiens) (protein)
chain: MNSELDYYEKFEEVHGILMYKDFVKYWDNVEAFQARPDDLVIATYPKSGTTWVSEIVYMIYKEGDVEKCKEDVIFNRIPFLECRKENLMNGVKQLDEMNSPRIVKTHLPPELLPASFWEKDCKIIYLCRNAKDVAVSFYYFFLMVAGHPNPGSFPEFVEKFMQGQVPYGSWYKHVKSWWEKGKSPRVLFLFYEDLKEDIRKEVIKLIHFLERKPSEELVDRIIHHTSFQEMKNNPSTNYTTLPDEIMNQKLSPFMRKGITGDWKNHFTVALNEKFDKHYEQQMKESTLKFRTEI
notes: as for B1
With B2, in data set [2], the Km amounted to 0.05 µM, the Vmax amounted to 0.00835 µmol/min/mg and the Vmax/Km was 167000 µL/min/mg.

B3: SULT1A1*2 (Homo sapiens; R213H) (protein)
chain: MELIQDTSRPPLEYVKGVPLIKYFAEALGPLQSFQARPDDLLISTYPKSGTTWVSQILDMIYQGGDLEKCHRAPIFMRVPFLEFKAPGIPSGMETLKDTPAPRLLKTHLPLALLPQTLLDQKVKVVYVARNAKDVAVSYYHFYHMAKVHPEPGTWDSFLEKFMVGEVSYGSWYQHVQEWWELSRTHPVLYLFYEDMKENPKREIQKILEFVGHSLPEETVDFVVQHTSFKEMKKNPMTNYTTVPQEFMDHSISPFMRKGMAGDWKTTFTVAQNERFDADYAEKMAGCSLSFRSEL
notes: purchased PanVera (Madison, WI); host or cells: Sf-9
Turning to B3, in data set [3], the Km came out at 0.022 µM.

B4: SULT1A1*1 (Homo sapiens) (protein)
chain: MELIQDTSRPPLEYVKGVPLIKYFAEALGPLQSFQARPDDLLISTYPKSGTTWVSQILDMIYQGGDLEKCHRAPIFMRVPFLEFKAPGIPSGMETLKDTPAPRLLKTHLPLALLPQTLLDQKVKVVYVARNAKDVAVSYYHFYHMAKVHPEPGTWDSFLEKFMVGEVSYGSWYQHVQEWWELSRTHPVLYLFYEDMKENPKREIQKILEFVGRSLPEETVDFVVQHTSFKEMKKNPMTNYTTVPQEFMDHSISPFMRKGMAGDWKTTFTVAQNERFDADYAEKMAGCSLSFRSEL
notes: as for B1
B4: in data set [4], the Km was determined as 0.018 µM, the Vmax worked out at 0.00689 µmol/min/mg and the Vmax/Km was found to be 383000 µL/min/mg.

For the origin of these results see article PMC1257591, “In Vitro Inhibition of Human Hepatic and cDNA-Expressed Sulfotransferase Activity with 3-Hydroxybenzo[a]pyrene by Polychlorobiphenylols” (Environmental Health Perspectives, 2005).
